Data taken from patent US20230365642A1.

Molecular target: high affinity IL-2 receptor (IL-2R) consisting of CD122, CD132 and CD25, on CTLL-2 cells (mouse) (UniProt P01590)
Assay: cell-based or functional assay

Chain of high affinity IL-2 receptor (IL-2R) consisting of CD122, CD132 and CD25, on CTLL-2 cells (mouse) (P01590 22-268, chain 1 of 3): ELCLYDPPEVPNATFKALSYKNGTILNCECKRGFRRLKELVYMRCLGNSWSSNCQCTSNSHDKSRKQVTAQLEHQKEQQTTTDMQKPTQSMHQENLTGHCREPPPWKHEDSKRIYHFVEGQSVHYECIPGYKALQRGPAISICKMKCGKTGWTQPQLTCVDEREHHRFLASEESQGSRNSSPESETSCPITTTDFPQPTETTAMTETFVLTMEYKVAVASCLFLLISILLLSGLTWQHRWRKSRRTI
Chain of high affinity IL-2 receptor (IL-2R) consisting of CD122, CD132 and CD25, on CTLL-2 cells (mouse) (P16297 27-539, chain 2 of 3, further chain): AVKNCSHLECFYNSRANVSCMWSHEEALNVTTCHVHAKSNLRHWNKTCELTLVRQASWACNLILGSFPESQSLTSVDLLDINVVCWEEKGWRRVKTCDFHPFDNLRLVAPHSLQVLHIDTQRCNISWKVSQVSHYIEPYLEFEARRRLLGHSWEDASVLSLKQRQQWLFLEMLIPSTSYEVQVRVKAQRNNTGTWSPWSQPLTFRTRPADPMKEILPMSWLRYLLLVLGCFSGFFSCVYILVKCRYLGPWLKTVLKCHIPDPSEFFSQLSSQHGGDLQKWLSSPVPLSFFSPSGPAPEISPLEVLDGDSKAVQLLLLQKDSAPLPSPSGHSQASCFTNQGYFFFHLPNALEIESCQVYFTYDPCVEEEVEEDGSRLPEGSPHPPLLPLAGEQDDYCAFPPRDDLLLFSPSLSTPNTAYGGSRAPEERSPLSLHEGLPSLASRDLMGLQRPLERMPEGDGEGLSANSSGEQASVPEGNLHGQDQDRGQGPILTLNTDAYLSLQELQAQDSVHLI
Chain of high affinity IL-2 receptor (IL-2R) consisting of CD122, CD132 and CD25, on CTLL-2 cells (mouse) (P34902 23-369, chain 3 of 3, further chain): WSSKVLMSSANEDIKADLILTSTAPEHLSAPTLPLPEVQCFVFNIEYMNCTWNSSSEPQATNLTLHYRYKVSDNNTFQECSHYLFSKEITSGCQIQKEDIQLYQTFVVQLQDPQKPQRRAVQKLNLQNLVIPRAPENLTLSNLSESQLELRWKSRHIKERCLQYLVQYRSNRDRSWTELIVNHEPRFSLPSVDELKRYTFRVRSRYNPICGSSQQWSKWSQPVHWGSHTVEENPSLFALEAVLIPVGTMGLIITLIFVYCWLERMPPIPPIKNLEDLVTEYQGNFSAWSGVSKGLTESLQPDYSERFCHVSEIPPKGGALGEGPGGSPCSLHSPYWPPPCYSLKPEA

Substance: rhIL-2 (from UniProt P60568 21-153) (ligand)
- CTLL-2 cell proliferation, EC50: 6.4 pM
